# Experimental data reported in the nanobody polyreactivity screen of Harvey et al. (2022).
# Assay: yeast display, Sf9 membrane polyspecificity reagent, FACS + sequencing; frameworks hold sequencing errors
# In short: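 Sorting gates, low and high (top ~1%), were placed on anti-HA fluorescence to track expression and on streptavidin fluorescence to track reagent binding. A clone's polyreactivity label is taken from the gate it came out of. The reagent was 10% biotinylated, detergent-solubilized Sf9 membrane, applied for 1 hour at 4 °C to galactose-induced yeast display cells.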
row,Sequence,polyreactivity (PSR sort gate)
1,QVQLVESGGGLVQAGGSLRLSCAASGRIFGSFAMGWYRQAPGKERELVAAITKRGGRTYYADSVKGRFTISRDNANNTVYLQMNSLKPEDTAVYYCRIASYDYWGQGTQVTVSA,high polyreactivity
2,QVQLVESGGGLVQAGGSLRLSCAASGRIFYTNAMGWSRQAPGKERELVAVISWGGDTTYYADSVKGRFTISRDNAKNTVYLQLNSLKPEDTAVYYCNADWGPTYEIYDSWGQGTQVTVSS,low polyreactivity
3,QVQLVESGGGLVQAGGSLRLSCAASGSTFYPYAMGWYRQAPGKERELVAVISWRGGSTYYADSVKGRFTISRDNAKNTVYLQMNSLKPEDTAVYYCGASGYRGYEYWGQGTQVTVSS,high polyreactivity
4,QVQLVESGRGIVQAGGSLRLSCAASGSIFLHNAMGWYRQAPGKETELVAAITGSGGYTYYADSVKGRFTISRDNPKNTVYIQMNSRQPEDTAVYYCAACSRSRYYRYVYYQYVTMDYWGQGTQETVSS,high polyreactivity
5,QVQLVESGGGLVQAGGSLRLSCAASGFTFSIYAMGWYRQAPGKERELVAAISYRGTSTYYADSVKGRFTISRDNAKNTVYLQMNSLKPEDTAVYYCNKVSSPFVYTVYYWGQGTQVTVSS,high polyreactivity
6,QVQLVESGGGLVQAGGSLRLSCAASGITSVVYAMGWYRQAPGKERELVAAISSAGSTYYADSVKGRFTISRDNAKNTVYLQMNSLKPEDTAVYYCAAAGYPQTYLYYYWGQGTQVTVSS,low polyreactivity
7,QVQLVDSGGGLVQAGGSLRLSCAASGSIILLNAMGWYRQAPGKEREMVARIRINGGSTYYADSVKGRFTISRDNAKNTVYLKMNSLKPEDTAVYYCAADDTGPYSNWYDYWGQGTQVTVSS,low polyreactivity
8,QVQLVESGGGLVQPGGSLRLSCAASGSIFGYNAMGWYRPAPGKERELVAVITRSDGSTYYADSVKGRFTISRDNAKNTVYLQMNSLKPEDTAVYYCNAETHVYYWGVVIYEYNYWGQGTQVTVSS,low polyreactivity
9,QVQLVESGGGLVQAGGSLRLSCAASGFTFGYNDMGWYRQAPGKERELVAGIRSGDDTNYADSVKGRFTISRDNAKNTVYLQMNSLKPEDTAVYYCAVGYGDYLYYDYDYWGQGTQVTVSS,low polyreactivity
10,QVQIVESGGGLVQPGGSLRLSCAASGRIFGRNAMGWYRQAPGKEWELVAAITTSASRTYYADSVKGRFTISRDNAKNTVYLQMNSLKPEDTAVYYCAARPSWYWYKGDYWGQGTQVTVSS,high polyreactivity
11,QVQLVDSGGGLVQAGGSLRLSCAASGFTFVPYAMGWYRQAPGKERETNADSVKGRFTISRDNAKNTVYLQMNSLKPEDTAVYYCAAGGYGPYDYWGQGTQVTVSS,low polyreactivity
12,QVQLVESGGGLVQAGGSLRLSCAASGLIFKSYAMGWYRQAPGKERELVATISSSGSTNYADSVKGRFTISRDNAKNTVYLQMNSLKPEDTAVYYCNADDEVWWWIYDYWGQGTQVTVSS,low polyreactivity
13,QVQLVESGGGLVQAGGSLRLSCAASGIIFRSNAMGWYRQAPVKETELVAAITGRGTRTYFADSVKGRFTISRDYAKYRVYFQMNSLKPEDTAVYYCNKGQTRGMGYWGQGTQVTVSS,high polyreactivity
14,QVQLVESGGGLVQAGGSLRLSCAASGRIFQYYAMGWYRQAPGKERELVASISGRGGRTYYADSVKGRFTISRDNAKNTVYLQMNSLKPEDTAVYYCNAVFSTIRYIRSYNYWGQGTQVTVSS,high polyreactivity
15,QVQLVESGGCLVQAGGSLRLSCAASGRTFSRNAMGWYRQAPGKERELVAAISQRGVYTYYADSVKGRFTISRDNAKNTVYLQMNRLKPEDSAVYYCNTRGTYRYDYWGQGTQVTVSS,low polyreactivity
16,QVQLVESGGVLVQSGGSLRLSCAASGFIFYDYAMGWYRQAPGKEREMVAAITSGGSTYYADSVKGRFTISRDNAKNTVYLQMKSLKPEDTAVYYCAADAYNLDDDTYDYWGQGTIVTVSS,low polyreactivity
17,QVQLVESGGGLVQAGGSLRLSSAASGNTFRHYAMGRYRQAPGKERELVAAISYSGGSTYYADSVKGRFTISRDNAKNTVYLQMNSLKPEDTAVYYCAAYSYASYGVSGYYYWGQGTQVTVSS,high polyreactivity
18,QVQLVESGGGLVQAGGSLRLSCAASGNIFPYYTLGWYRKAPGKEREWVAAITIGGSTYYADSEKGRFTISRDNAKNTVYLQMNSLKPEDTAVYYCAARSRYYDTRFEYWGQGTQVTVSS,low polyreactivity
19,QVQLVESGGGLVQAGGSLRLSCAASGITFIYYAMGSYRQAPGKERELVAAISKSGGRTYYADSVKGRFTISRDNAKNTVYLQMNSLKPEDSAVYYCNKLVGDDTSLYDYWGQGTQVTVSS,high polyreactivity
20,QVQLVESGGGLVQAGGSLRLSCAASGSTFRYNAMGWYIQAPGKERELVAAITSTGDSTYYADSVKGRFTISRDNAKNTVYLQMNSLKPEYTAVYYCAARSYASPGWRYEYWGQGTQVTVSS,low polyreactivity
21,QVHHVESGGGLVQAGGSLRLSCAASGLTFYGYTMGRSRQAPGKERELVAAISRGTSTKYADSVKGRFTISRDNAKNTVYLQMNSLKPEETAVYYCAAKGSRSGMGYWGQGTQVTVSS,high polyreactivity

row,Sequence,polyreactivity (PSR sort gate)
1,QVQLVESGGGLVQAGGSLRLSCAASGLTFNTSAMGWSRQAPGKEREWVAAITSSGSITYYADSVKGRFTISRDNAKNTVYLQMNSLKPEDTAVYYCAAAVGYYAFGTYPFDDWPYDYWGQGTQVTVSS,high polyreactivity
2,QVQLVESGGGLVQAGGSLRLSCAASGRIFNSNAMGWYRQAPGKERELAAAISKRGGSTFYADSVKGRFTISRDNAKNTVYLQMNSLKPEDTAVYYCNARRLSTGFERYDYWGQGTQVTVSS,high polyreactivity
3,QVQLVESGGGLVQAGGSLRLSCAASGRIFGNYAMGWYRQAPGKERELVAAITSGARTYYADSVKGRFTISRDNAKNTVYLQMNSLKPEDTAVYYCAAYHKSYSYRYDYWGQGTQVTVSS,high polyreactivity
4,QVQLVESGGGLVQAGGSLRLSCAASGYILPKNTMGWYRQAPGKERELVAAISWSGGSTFYADSVKGRFTISRDNAKNTVYLQMNSLKPEDTAVYYCAADRYWSWYYRYDYWGQGTQVTVSS,low polyreactivity
5,QVQLVESGGGLVQAGGSLRLSCAASGITFPFYAMGWYRQAPGKERELVAAISRRGGRTYYADSVKGRFTISRDNAKNTVYLQMNSLKPEDTAVYYCAAANGSADGDYWGQGTQVTVSS,high polyreactivity
6,QVQLVESGGGLVQAGGSLRLSCAASGFTFTDYAMGWYRQAPAKERELVAVITYDSTYYADSVKGRFTISRDNAKNTVYLQMNSLKPEDTAVYYCAADSYDWGDFDYWGQGTEVTVSS,low polyreactivity
7,QVQLVESGGGLVLAGGSLRLSCAASGSTFFTNVMGWNRQAPGKERELVASITSGGSTNYADSVKGRFTITRDNAQNTVYLQMNSLKPEDTAVYYCAAVTRTITIYELDSWGQGTQVTVSS,low polyreactivity
8,QVQLVESGGGLVQAGGSLRLSCAASGFTVSYNTMGWYRQAPGKERELVAAISARGTSTYYADSVKGRFTISRDNAKNTVYLQMNSLKPEDTAVYYCAAAYRIGSGYWGQGTQVTVSS,high polyreactivity
9,QVQLVESGGGLVQAGGSLRLSCAASGSIFFGYGMGWYRQAPGKERELVATITTSGGTYYADSVKGRFTISRDNAKNTVYLQMNSLKPEDTAVYYCAATAAALDGNTIMYYWGQGTQVTVSS,low polyreactivity
10,QVQLVESGGGLVQAGGSLRLSCAASGSILRIYAMGWYSQAPGKEMELVARITWSGGRTYYADSVKGRFTISRDNAKNTVYLQMNSLKPEDTAVYDCNADLQRWGWEYDYWGQGTQVTVSS,high polyreactivity
11,QVQHEESGGGLVQAGGSLRLSCAASGRIFHFNTMGWYRQAPGKERELVAAITSSGGSTNYADSVKGRFTISRDNAKNTVYLQMNSLKPEDTAVYYCNADTGAADYFDFDYWGQGTQVTVSS,low polyreactivity
12,QVQLGESGGGIVQAGGSLRLSCAASGIIFYPYTMGWYRQAPGKERELVAAINSGGSTYYADSVKGRFTISRDNAKNTVYLQMNSLKPEDTAVYYCAAEEALDWYDDWIVSYDYWGQGTQVTVSS,low polyreactivity
13,QVQLVESGGGLVQEGGSLRLICAASGSTFYDYAMGWYRQAPGKERELVAAINWSSDTTYYADSVKGRFTISRDNAKNTVYLQMNSMKPEDTAVYYCATDSAYRGYDYWGQGTQVTVSS,low polyreactivity
14,QVQLVESGGGLVQAGGSLRLSCAASGFIFQYYAMGWYRQAPGKERELVAAINRGGGTHYADSVKGRFTISRDNAKNTVYLQMNSLKPEDTAVYYCNKVYYWPGSRPSRYEYWGQGTQVTVSS,low polyreactivity
15,QVQLVESGGGLVQAGGSLRLSCAASGSIIQGYVMGWYRQAPGKERELVAAISNSGSSTYYADSVKGRFTISRDNAKNTVYIQMNSLKPEDTAVYYCAVLRSYRGYKYGYWGQGTQVTVSS,high polyreactivity
16,QVQLVESGGGLVQAGGSLRLSCAASGRIFGSYAMGWYRQAPGKERELVASIRSGGRTKYADSVKGRFTISRDNAKNTVYLQMNSLKPEVTAVYYCAVPIEWDYGYWGQGTQVTVSS,low polyreactivity
17,QVQLVESGGGLVQAGGSLRLSCAASGRTFNSYAMGWYRQSPGKERELVADITSSGGSTYYADSVKGRFTISRDNAKNTVFLQMNSLIPEDTALYYCAADGYTRLPTYLRVNHRSLDYWGQGTQVTVSS,low polyreactivity
18,QFQLVESGGGLVQAGGSLRLSCAASGSIFGGYAMGWYRQAPGKERELVAAISYRGASTYYADSVKGRFTISRDNAKNTVYLLMNSLKPEDTAVYYCAVAARTRARFLYGYDYWGQGTQVTVSS,low polyreactivity
19,QVQLVESGGGLVQAGGTLRLSCAASGFTFLDYAMGWYRQAPGKERELVATINWSDVSTYYADSVKGRFTISRDTAKNTVYLQINSLKPEDTAVYYSAVDVLTVGQSNDHWGQGTQVTVSS,high polyreactivity
20,QVQLVESGAGLVQAGGSILLICAASGLTFYKNAMGWYRQAPAKERELVAVISSSGGSTYYADSVKGRFTISRDNAKNTVYLQMNSLKPEDTAVYYCARDLFTEYRWGLLTYDYWGQGTQVTVSS,low polyreactivity
